# Measurements: patent publication US20210145976A1 (ARO BIOTHERAPEUTICS, published 2021)
# Like-named read-outs stand apart in the source and are kept apart here.
# B1: SEQ ID NO 39 (designed binder)
# chain: MLPAPKNLVVSRVTEDSARLSWTAPDAAFDSFDIDYREWWTLGEAIVLTVPGSERSYDLTGLKPGTEYYVNIQGVKGGLRSYPLSAIFTT
# notes: FN3 domain
# B2: SEQ ID NO 52 (designed binder)
# chain: MLPAPKNLVVSRVTEDSARLSWTAPDAAFDSFKISYQEWWEDGEAIVLTVPGSERSYDLTGLKPGTEYWVNISGVKGGVQSYPLSAIFTT
# notes: FN3 domain
# B3: SEQ ID NO 42 (designed binder)
# chain: MLPAPKNLVVSRVTEDSARLSWTAPDAAFDSFTIEYYESFYGGEAIVLTVPGSERSYDLTGLKPGTEYYVSIYGVKGGWLSRPLSAIFTT
# notes: FN3 domain
# B4: SEQ ID NO 55 (designed binder)
# chain: MLPAPKNLVVSRVTEDSARLSWTAPDAAFDSFIIEYWEFVGYGEAIVLTVPGSERSYDLTGLKPGTEYWVAIYGVKGGDLSKPLSAIFTT
# notes: FN3 domain
# B5: SEQ ID NO 53 (designed binder)
# chain: MLPAPKNLVVSRVTEDSARLSWTAPDAAFDSFFISYIEWWDLGEAIVLTVPGSERSYDLTGLKPGTEYHVEIFGVKGGTQSYPLSAIFTT
# notes: FN3 domain
# B6: SEQ ID NO 47 (designed binder)
# chain: MLPAPKNLVVSRVTEDSARLSWTAPDAAFDSFTIWYAEALGDGEAIVLTVPGSERSYDLTGLKPGTEYFVDIYGVKGGFWSLPLSAIFTT
# notes: FN3 domain
# B7: SEQ ID NO 40 (designed binder)
# chain: MLPAPKNLVVSRVTEDSARLSWTAPDAAFDSFVIEYWEYVGHGEAIVLTVPGSERSYDLTGLKPGTEYSVGIYGVKGGSLSRPLSAIFTT
# notes: FN3 domain
# B8: SEQ ID NO 59 (designed binder)
# chain: MLPAPKNLVVSRVTEDSARLSWTAPDAAFDSFTIWYAEWEDEGEAIVLTVPGSERSYDLTGLKPGTEYRVEIYGVKGGYPSKPLSAIFTT
# notes: FN3 domain
# B9: SEQ ID NO 58 (designed binder)
# chain: MLPAPKNLVVSRVTEDSARLSWTAPDAAFDSFTIWYAEADGWGEAIVLTVPGSERSYDLTGLKPGTEYFVDIYGVKGGYLSVPLSAIFTT
# notes: FN3 domain
# B10: SEQ ID NO 45 (designed binder)
# chain: MLPAPKNLVVSRVTEDSARLSWTAPDAAFDSFAIYYLESYPEGEAIVLTVPGSERSYDLTGLKPGTEYWVGIDGVKGGTWSSPLSAIFTT
# notes: FN3 domain
# B11: SEQ ID NO 48 (designed binder)
# chain: MLPAPKNLVVSRVTEDSARLSWTAPDAAFDSFVIEYFEQFNLGEAIVLTVPGSERSYDLTGLKPGTEYWVGIYGVKGGWLSHPLSAIFTT
# notes: FN3 domain
# B12: SEQ ID NO 46 (designed binder)
# chain: MLPAPKNLVVSRVTEDSARLSWTAPDAAFDSFTIEYFEFTGTGEAIVLTVPGSERSYDLTGLKPGTEYYVSIYGVKGGLLSAPLSAIFTT
# notes: FN3 domain
# B13: SEQ ID NO 41 (designed binder)
# chain: MLPAPKNLVISRVTEDSARLSWTAPDAAFDSFFIYYIESYPAGEAIVLTVPGSERSYDLTGLKPGTEYWVGIDGVKGGRWSTPLSAIFTT
# notes: FN3 domain
# B14: SEQ ID NO 44 (designed binder)
# chain: MLPAPKNLVVSRVTEDSARLSWTAPDAAFDSFYIEYYESLPDGEAIVLTVPGSERSYDLTGLKPGTEYAVYIYGVKGGYYSRPLSAIFTT
# notes: FN3 domain
# B15: SEQ ID NO 43 (designed binder)
# chain: MLPAPKNLVVSRVTEDSARLSWTAPDAAFDSFYIEYYESYPGGEAIVLTVPGSERSYDLTGLKPGTEYDVYIYGVKGGYWSRPLSAIFTT
# notes: FN3 domain
# B16: SEQ ID NO 49 (designed binder)
# chain: MLPAPKNLVVSRVTEDSARLSWTAPDAAFDSFGISYLEWWEDGEAIVLTVPGSERSYDLTGLKPGTEYWVSIAGVKGGKRSYPLSAIFTT
# notes: FN3 domain
# B17: SEQ ID NO 51 (designed binder)
# chain: MLPAPKNLVVSRVTEDSARLSWTAPDAAFDSFFIKYIEWWADGEAIVLTVPGSERSYDLTGLKPGTEYLVEIYGVKGGKWSWPLSAIFTT
# notes: FN3 domain
# B18: SEQ ID NO 33 (designed binder)
# chain: MLPAPKNLVVSRVTEDSARLSWTAPDAAFDSFTIQYEELTTVGEAIYLRVPGSERSYDLTGLKPGTEYVVWIEGVKGGLRSNPLGAAFTT
# notes: FN3 domain
# B19: SEQ ID NO 50 (designed binder)
# chain: MLPAPKNLVVSRVTEDSARLSWTAPDAAFDSFVIEYREGAWYGEAIVLTVPGSERSYDLTGLKPGTEYFVDITGVKGGWWSDPLSAIFTT
# notes: FN3 domain
# B20: SEQ ID NO 226 (designed binder)
# chain: MLPAPKNLVVSRVTEDSARLSWTAPDAAFDSFHIIYEEVLTEGEAIYLRVPGSERSYDLTGLKPGTEYGVTIKGVKGGAYSIPLIATFTT
# notes: FN3 domain
# B21: SEQ ID NO 36 (designed binder)
# chain: MLPAPKNLVVSRVTEDSARLSWTAPDAAFDSFTITYIEWWENGEAIALSVPGSERSYDLTGLKPGTEYQVGIAGVKGGYKSYPLWALFTT
# notes: FN3 domain
# B22: SEQ ID NO 238 (designed binder)
# chain: MLPAPKNLVVSRVTEDSARLSWTAPDAAFDSFKIFYQEFGGEAIVLTVPGSERSYDLTGLKPGTEYWVDIYGVKGGYTSSPLSAIFTT
# notes: FN3 domain
# B23: SEQ ID NO 61 (designed binder)
# chain: MLPAPKNLVVSRVTEDSARLSWRVESRTFDSFLIQYQESEKVGEAIVLTVPGSERSYDLTGLKPGTEYTVSIYGVVWDTRDNPISNPLSAIFTT
# notes: FN3 domain
# B24: SEQ ID NO 62 (designed binder)
# chain: MLPAPKNLVVSRVTEDSARLSWTAPDAAFDSFPILYLELNHHGEEIVLTVPGSERSYDLTGLKPGTEYWVYIFGVKGGMYSAPLSAIFTTGG
# modifications: VC-MMAF conjugate (site not given)
# How the values were obtained:
# [1] = target: T1, recombinant biotinylated CD71 extracellular domain (Sino Biologics) with an N-terminal 6His tag (human, UniProt P02786 89-760, biotinylated (sites not given)); experiment: screening ELISA
# T1 construct: extracellular domain; also called hCD71; huCD71
# Description: (§1) To screen for FN3 domains that specifically bind CD71, streptavidin-coated Maxisorp plates (Nunc catalog 436110) were blocked for 1 hour in Starting Block T20 (Pierce) and then coated with biotinylated CD71 (using same antigen as in panning) or negative controls (an unrelated Fc-fused recombinant protein and human serum albumin) for 1 hour. Plates were rinsed with TBST and diluted lysate was applied to plates for 1 hour. Following additional rinses, wells were treated with HRP-conjugated anti-V5 tag antibody (Abcam, ab1325), for 1 hour and then assayed with POD (Roche, 11582950001).
# CD71 on SK-BR-3 cells [2] = target: T2, CD71 on SK-BR-3 cells (human, UniProt P02786 1-760); experiment: cell-based or functional assay
# CD71 on SK-BR-3 cells [3] = target: T2, CD71 on SK-BR-3 cells; experiment: cell-based or functional assay; remark: listed apart in the source
# [4] = target: T1, recombinant biotinylated CD71 …; experiment: screening ELISA, ratio
# Description: as §1
# [5] = target: T1, recombinant biotinylated CD71 …; experiment: screening ELISA; remark: listed apart in the source
# [6] = target: T1, recombinant biotinylated CD71 …; experiment: screening ELISA, ratio; remark: listed apart in the source
# CD71 on SK-BR-3 cells [7] = target: T2, CD71 on SK-BR-3 cells; experiment: cell-based or functional assay; remark: listed apart in the source
# T2 sequence (P02786 whole entry): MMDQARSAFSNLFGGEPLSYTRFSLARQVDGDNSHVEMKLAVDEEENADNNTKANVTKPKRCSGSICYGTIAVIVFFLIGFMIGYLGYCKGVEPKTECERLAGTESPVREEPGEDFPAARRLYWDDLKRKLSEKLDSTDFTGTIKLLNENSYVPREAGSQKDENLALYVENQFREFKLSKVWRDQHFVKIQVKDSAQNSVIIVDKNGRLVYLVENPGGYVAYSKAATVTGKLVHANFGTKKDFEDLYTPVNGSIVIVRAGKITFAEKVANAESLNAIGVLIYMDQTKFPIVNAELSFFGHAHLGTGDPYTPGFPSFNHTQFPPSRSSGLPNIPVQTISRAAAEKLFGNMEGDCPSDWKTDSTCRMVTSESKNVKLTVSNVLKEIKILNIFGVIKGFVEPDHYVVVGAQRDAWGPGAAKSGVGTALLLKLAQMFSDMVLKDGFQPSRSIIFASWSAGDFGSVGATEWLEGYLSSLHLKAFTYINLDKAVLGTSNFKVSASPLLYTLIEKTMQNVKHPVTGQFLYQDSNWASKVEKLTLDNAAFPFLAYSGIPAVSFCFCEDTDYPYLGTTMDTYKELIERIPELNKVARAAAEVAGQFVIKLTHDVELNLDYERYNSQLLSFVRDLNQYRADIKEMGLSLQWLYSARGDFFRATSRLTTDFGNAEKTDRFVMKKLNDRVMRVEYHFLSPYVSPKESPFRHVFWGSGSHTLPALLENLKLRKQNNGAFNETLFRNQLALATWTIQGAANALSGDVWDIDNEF
# T1 sequence (P02786 other isoform, or with tags, fused parts or gaps): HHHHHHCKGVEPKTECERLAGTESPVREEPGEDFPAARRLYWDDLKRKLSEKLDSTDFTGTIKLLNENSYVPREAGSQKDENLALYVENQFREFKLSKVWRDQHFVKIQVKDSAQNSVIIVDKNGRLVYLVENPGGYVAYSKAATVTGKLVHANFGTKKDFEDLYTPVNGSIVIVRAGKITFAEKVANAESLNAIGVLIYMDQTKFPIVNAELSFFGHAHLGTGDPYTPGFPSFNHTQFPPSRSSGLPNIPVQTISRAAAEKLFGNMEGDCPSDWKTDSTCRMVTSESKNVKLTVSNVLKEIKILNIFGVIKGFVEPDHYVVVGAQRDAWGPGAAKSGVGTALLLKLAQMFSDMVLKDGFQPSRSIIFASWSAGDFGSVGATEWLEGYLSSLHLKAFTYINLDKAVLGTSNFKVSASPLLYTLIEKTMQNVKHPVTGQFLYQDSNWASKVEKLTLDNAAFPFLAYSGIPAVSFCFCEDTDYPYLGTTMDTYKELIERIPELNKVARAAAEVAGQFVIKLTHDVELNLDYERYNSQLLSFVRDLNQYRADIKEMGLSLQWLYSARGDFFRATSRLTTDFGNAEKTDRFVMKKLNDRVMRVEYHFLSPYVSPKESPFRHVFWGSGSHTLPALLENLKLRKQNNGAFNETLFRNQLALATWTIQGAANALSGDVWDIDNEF
Binder,hCD71 [1],"IC50, SKBR-3 cell viability, MMAF conjugate (CD71 on SK-BR-3 cells [2])","IC50, SK-BR3 viability, MMAF conjugate, no competitor (CD71 on SK-BR-3 cells [3])","IC50, SK-BR3 viability, MMAF conjugate, with 0.6 uM holo-human transferrin (CD71 on SK-BR-3 cells [3])",huCD71/Fc [4],hCD71 [5],hCD71:HSA [6],"IC50, SKBR-3 viability, MMAF conjugate, second unlabelled column (+/- human transferrin) (CD71 on SK-BR-3 cells [7])"
B1,507000,0.52 nM,1.2 nM,31.1 nM,122,,,
B2,1.01e+07,6.3 nM,,,5750,,,
B3,2.83e+06,0.19 nM,2.4 nM,~70 nM,478,,,
B4,1.11e+07,0.026 nM,0.15 nM,5.5 nM,1440,,,
B5,1.01e+06,0.07 nM,3.6 nM,~90 nM,110,,,
B6,265000,5.9 nM,1.6 nM,~85 nM,50.9,,,
B7,220000,3 nM,2.2 nM,~100 nM,74.4,,,
B8,1.95e+06,4 nM,,,608,,,
B9,302000,7.7 nM,,,62.9,,,
B10,1.93e+06,8.3 nM,0.05 nM,0.9 nM,669,,,
B11,943000,0.42 nM,1.3 nM,~70 nM,337,,,
B12,113000,2.69 nM,3 nM,~100 nM,37,,,
B13,4.27e+06,4.7 nM,0.01 nM,0.5 nM,423,,,
B14,176000,2.5 nM,,,44.8,,,
B15,1.62e+06,0.069 nM,0.97 nM,~80 nM,199,,,
B16,1.09e+07,3 nM,,,948,,,
B17,9.71e+06,4.9 nM,,,2290,,,
B18,518000,3.27 nM,4.4 nM,~200 nM,46.6,,,
B19,1.08e+07,3.1 nM,,,4490,,,
B20,,,,,,4.33e+06,1520,8.32 nM
B21,3.3e+06,7.1 nM,,,535,,,
B22,,,,,,2.88e+06,679,7.23 nM
B23,4.9e+06,1.93 nM,,,461,,,
B24,,,> 0.005 nM,0.6 nM,,,,
